# According to patent US20240317847A1 (Bayer, published 2024):
# Positions count from the first letter of the chain named. In names and notes the source's numbering stands. Several values for one entry are separate records, joined by “and”; a condition that tells them apart may be missing. Identical values can stand only once.
# B1: TPP-31312 (antibody, IgG4, V domains shown)
# VH: EVQLLESGGGLVQPGGSLRLSCAASGFTFSHYDMNWLRQAPGKGLEWVGVISYDGSNKFYADFVKGRFTISRDNSKNTLYLQMNSLRAEDTAVYYCARTPGSHFDYWGQGTLVTVSS
# VL: QSVLTQPPSASGTPGQRVTISCSGSSSNIGNNAVNWYQQLPGTAPKLLIYYDDLLPSGVPDRFSGSKSGTSASLAISGLRSEDEADYYCSAWDDSLNGVVFGGGTKLTVL
# notes: also called WT antibody; chimeric antibody
# B2: TPP-31325 (antibody, human IgG4 S228P, lambda, V domains shown)
# VH: B1 VH with E1Q, L5V, L11V, G16R, N35H, L37V, G49A, D54E, F63S
# VL: QSVLTQPPSASGTPGQRVTISCSGSSSNIGSNYVNWYQQLPGTAPKLLIYYDDLRPSGVPDRFSGSKSGTSASLAISGLRSEDEADYYCSAWDDSLSGVVFGGGTKLTVLG
# notes: hIgG4-SPLE, Lambda; also called final germline; FB with a back-mutation VL-A90S
# B3: TPP-31313 (antibody, IgG4, V domains shown)
# VH: B1 VH with E1Q, L5V, L11V, G16R, N35H, L37V, G49A, D54E, F63S
# VL: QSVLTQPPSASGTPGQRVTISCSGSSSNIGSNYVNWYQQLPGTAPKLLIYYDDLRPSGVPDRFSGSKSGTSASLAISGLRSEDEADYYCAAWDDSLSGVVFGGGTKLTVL
# notes: hIgG4 SPLE, lambda; also called FB; fundamental backbone
# B4: TPP-31328 (antibody, IgG4, V domains shown)
# VH: B1 VH with E1Q, L5V, L11V, G16R, N35H, L37V, G49A, D54E, F59Y, F63S
# VL: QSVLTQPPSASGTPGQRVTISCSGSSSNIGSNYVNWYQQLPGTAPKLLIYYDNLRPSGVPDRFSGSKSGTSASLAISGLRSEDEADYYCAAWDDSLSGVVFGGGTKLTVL
# notes: hIgG4 SPLE, lambda; FB + 2, plus VH-F59Y & VL-D53N
# B5: TPP-31322 (antibody, IgG4, V domains shown)
# VH: B1 VH with E1Q, L5V, L11V, G16R, N35H, L37V, G49A, D54E, F63S
# VL: B1 VL with A33Y, L55R, S90A, N97S
# notes: hIgG4 SPLE, lambda; FB - 1, back mutation VL-S31N
# B6: TPP-31323 (antibody, IgG4, V domains shown)
# VH: B1 VH with E1Q, L5V, L11V, G16R, N35H, L37V, G49A, D54E, F63S
# VL: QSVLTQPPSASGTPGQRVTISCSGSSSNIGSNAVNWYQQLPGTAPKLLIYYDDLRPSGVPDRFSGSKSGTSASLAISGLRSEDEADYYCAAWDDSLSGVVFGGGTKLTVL
# notes: hIgG4 SPLE, lambda; FB - 1, back mutation VL-Y33A
# B7: TPP-31318 (antibody, IgG4, V domains shown)
# VH: B1 VH with E1Q, L5V, L11V, G16R, L37V, G49A, D54E, F63S
# VL: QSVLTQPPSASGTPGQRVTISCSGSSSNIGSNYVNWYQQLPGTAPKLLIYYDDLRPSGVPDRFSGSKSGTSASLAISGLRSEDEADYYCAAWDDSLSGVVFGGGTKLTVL
# notes: hIgG4 SPLE, lambda; FB - 1, back mutation VH-H35N
# B8: TPP-31316 (antibody, IgG4, V domains shown)
# VH: B1 VH with E1Q, L5V, G16R, N35H, L37V, G49A, D54E, F63S
# VL: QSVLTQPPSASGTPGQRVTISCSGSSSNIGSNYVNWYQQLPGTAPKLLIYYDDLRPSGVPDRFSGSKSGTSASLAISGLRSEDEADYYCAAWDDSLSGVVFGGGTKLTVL
# notes: hIgG4 SPLE, lambda; FB - 1, back mutation VH-V11L
# B9: TPP-31314 (antibody, IgG4, V domains shown)
# VH: B1 VH with L5V, L11V, G16R, N35H, L37V, G49A, D54E, F63S
# VL: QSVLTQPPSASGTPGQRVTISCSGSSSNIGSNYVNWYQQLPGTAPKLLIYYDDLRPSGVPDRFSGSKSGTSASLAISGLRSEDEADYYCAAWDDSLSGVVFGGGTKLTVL
# notes: hIgG4 SPLE, lambda; FB - 1, back mutation VH-Q1E
# B10: TPP-31321 (antibody, IgG4, V domains shown)
# VH: B1 VH with E1Q, L5V, L11V, G16R, N35H, L37V, G49A, D54E
# VL: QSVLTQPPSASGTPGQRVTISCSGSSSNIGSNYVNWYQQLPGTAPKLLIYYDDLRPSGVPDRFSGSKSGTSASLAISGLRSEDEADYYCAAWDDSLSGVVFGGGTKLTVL
# notes: hIgG4 SPLE, lambda; FB - 1, back mutation VH-S63F
# B11: TPP-31326 (antibody, IgG4, V domains shown)
# VH: B1 VH with E1Q, L5V, L11V, G16R, N35H, L37V, G49A, D54E, F59Y, F63S
# VL: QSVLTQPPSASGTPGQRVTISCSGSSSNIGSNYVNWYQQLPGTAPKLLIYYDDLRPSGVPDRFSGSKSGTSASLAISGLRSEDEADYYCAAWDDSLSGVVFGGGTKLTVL
# notes: hIgG4 SPLE, lambda; FB + 1, plus VH-F59Y
# B12: TPP-31320 (antibody, IgG4, V domains shown)
# VH: B1 VH with E1Q, L5V, L11V, G16R, N35H, L37V, D54E, F63S
# VL: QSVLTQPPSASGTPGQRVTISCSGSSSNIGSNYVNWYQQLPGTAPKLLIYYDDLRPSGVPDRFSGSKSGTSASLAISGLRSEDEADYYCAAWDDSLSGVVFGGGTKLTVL
# notes: hIgG4 SPLE, lambda; FB - 1, back mutation VH-A49G
# B13: TPP-31319 (antibody, IgG4, V domains shown)
# VH: B1 VH with E1Q, L5V, L11V, G16R, N35H, G49A, D54E, F63S
# VL: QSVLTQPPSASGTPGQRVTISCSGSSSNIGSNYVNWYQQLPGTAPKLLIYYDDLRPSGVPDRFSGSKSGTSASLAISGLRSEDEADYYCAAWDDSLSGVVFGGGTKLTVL
# notes: hIgG4 SPLE, lambda; FB - 1, back mutation VH-V37L
# B14: TPP-31327 (antibody, IgG4, V domains shown)
# VH: B1 VH with E1Q, L5V, L11V, G16R, N35H, L37V, G49A, D54E, F63S
# VL: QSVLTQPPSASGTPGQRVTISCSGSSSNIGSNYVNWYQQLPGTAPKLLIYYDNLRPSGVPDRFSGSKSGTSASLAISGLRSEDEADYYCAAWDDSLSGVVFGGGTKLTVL
# notes: hIgG4 SPLE, lambda; FB + 1, plus VL-D53N
# B15: TPP-31317 (antibody, IgG4, V domains shown)
# VH: B1 VH with E1Q, L5V, L11V, N35H, L37V, G49A, D54E, F63S
# VL: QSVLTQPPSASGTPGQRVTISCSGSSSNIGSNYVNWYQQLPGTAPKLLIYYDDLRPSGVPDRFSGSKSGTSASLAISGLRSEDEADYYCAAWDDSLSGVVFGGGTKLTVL
# notes: hIgG4 SPLE, lambda; FB - 1, back mutation VH-R16G
# B16: TPP-31324 (antibody, IgG4, V domains shown)
# VH: B1 VH with E1Q, L5V, L11V, G16R, N35H, L37V, G49A, D54E, F63S
# VL: B1 VL with N31S, A33Y, S90A, N97S
# notes: hIgG4 SPLE, lambda; FB - 1, back mutation VL-R55L
# B17: TPP-31315 (antibody, IgG4, V domains shown)
# VH: B1 VH with E1Q, L11V, G16R, N35H, L37V, G49A, D54E, F63S
# VL: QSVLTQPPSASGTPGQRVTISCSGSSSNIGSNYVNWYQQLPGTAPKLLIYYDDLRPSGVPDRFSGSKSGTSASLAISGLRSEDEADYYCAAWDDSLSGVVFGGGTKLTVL
# notes: hIgG4 SPLE, lambda; FB - 1, back mutation VH-V5L
# B18: TPP-29391 (antibody, human IgG1, V domains shown)
# VH: EVQLLESGGGLVQPGGSLRLSCAASGFTFSSYGMHWVRQAPGKGLEWVAVISYDGSYKYYADSVKGRFTISRDNSKNTLYLQMNSLRAEDTAVYYCAAGVPDYWGQGTLVTVSS
# VL: QSVLTQPPSASGTPGQRVTISCSGSSSNIGSDYDVHWYQQLPGTAPKLLIYSNNERPSGVPDRFSGSKSGTSASLAISGLRSEDEADYYCAAWDSSLYGPVFGGGTKLTVL
# B19: TPP-29382 (antibody, human IgG1, V domains shown)
# VH: B18 VH
# VL: B18 VL with Y33L, S95F
# B20: TPP-29381 (antibody, human IgG1, V domains shown)
# VH: B18 VH
# VL: B18 VL with A91S, Y98S
# B21: TPP-29383 (antibody, human IgG1, V domains shown)
# VH: B18 VH
# VL: B18 VL with Y33L, N54E, S95P
# Target: T1, human IL-11 (human, UniProt P20809 22-199)
# T1 sequence: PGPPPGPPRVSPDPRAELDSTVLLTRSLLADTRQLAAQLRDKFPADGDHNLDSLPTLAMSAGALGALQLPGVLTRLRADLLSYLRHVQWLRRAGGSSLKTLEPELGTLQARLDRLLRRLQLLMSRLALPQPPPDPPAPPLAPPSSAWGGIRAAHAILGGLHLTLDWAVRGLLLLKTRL
# Experiment: cell-based or functional assay
Binder,"IC50, RGA 1","IC50, RGA 2"
B1,163 nM and 171 nM,80 nM

# Target: T2, murine IL-11 (mouse, UniProt P47873 22-199)
# T2 sequence: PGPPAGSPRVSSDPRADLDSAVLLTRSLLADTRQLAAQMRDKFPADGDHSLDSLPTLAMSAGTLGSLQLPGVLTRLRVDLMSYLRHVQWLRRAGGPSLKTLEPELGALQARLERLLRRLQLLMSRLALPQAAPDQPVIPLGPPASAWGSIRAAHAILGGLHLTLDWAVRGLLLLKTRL
# Experiment: cell-based or functional assay
Binder,"IC50, RGA 1","IC50, RGA 2"
B1,31 nM and 75 nM,20 nM

# Target: T1, human IL-11
# Experiment: cell-based or functional assay
# Remark: another data set of the same source
row,Binder,"IC50, RGA"
1,B1,8.9 nM
2,B2,1.2 nM
3,B3,5.4 nM
4,B4,7.9 nM
5,B5,1.7 nM
6,B6,7.1 nM
7,B7,3.8 nM
8,B8,3.2 nM
9,B9,2.4 nM
10,B10,2.8 nM
11,B11,3.6 nM
12,B12,2.8 nM
13,B13,2.3 nM
14,B14,3.1 nM
15,B15,2.9 nM
16,B16,2.9 nM
17,B17,2.9 nM

# Target: T2, murine IL-11
# Experiment: cell-based or functional assay
# Remark: another data set of the same source
row,Binder,"IC50, RGA"
1,B1,9.8 nM
2,B2,0.6 nM
3,B3,1.6 nM
4,B4,2.1 nM
5,B5,1.4 nM
6,B6,3.5 nM
7,B7,1.2 nM
8,B8,1.1 nM
9,B9,1.2 nM
10,B10,1 nM
11,B11,3.3 nM
12,B12,1.1 nM
13,B13,1.6 nM
14,B14,2.1 nM
15,B15,1.5 nM
16,B16,1 nM
17,B17,1.7 nM

# Target: T1, human IL-11
# Experiment: SPR, IgG captured via anti-human Fc, IL-11 as analyte
# Procedure: (§1) Antibody binding affinity to hIL-11 (Invigate, Germany, e.g., lot #C121021-19) and mIL-11 (Invigate, Germany, e.g., lot #C210819-09) was detected using Biacore 8K. Each antibody was captured on an anti-human IgG Fc antibody immobilized CM5 sensor chip (GE). hIL-11 and mIL-11 at different concentrations (0, 5, 15.82 and 50 nM) in 1×HBS-EP+ (pH 7.4) (GE healthcare) were injected over the sensor chip at a flow rate of 30 μL/min for an association phase of 120 s, followed by 200 s dissociation phase. The chip was then regenerated by 10 mM Glycine, pH 1.5 after each binding cycle.
# (§2) The sensorgrams of blank surface and buffer channel were subtracted from the test sensorgrams. The experimental data was fitted by 1:1 model using Langmiur analysis. Molecular weight of 19.3 kDa was used to calculate the molar concentration of human and mouse IL-11.
# (§3) 16 AB were produced as described in Example 21 and binding of purified AB to human and mouse IL-11 was analyzed using SPR as described in Example 21.
row,Binder,Kd
1,B1,5.3 nM
2,B2,0.59 nM
3,B3,0.89 nM
4,B4,1.8 nM
5,B5,0.81 nM
6,B6,2.4 nM
7,B7,0.89 nM
8,B8,0.85 nM
9,B9,0.87 nM
10,B10,0.85 nM
11,B11,1.7 nM
12,B12,0.95 nM
13,B13,0.83 nM
14,B14,1 nM
15,B15,0.83 nM
16,B16,0.79 nM
17,B17,0.87 nM

# Target: T2, murine IL-11
# Experiment: as above
# Procedure: as §1, §2, §3
row,Binder,Kd
1,B1,9.3 nM
2,B2,0.35 nM
3,B3,0.64 nM
4,B4,1.8 nM
5,B5,0.69 nM
6,B6,1.7 nM
7,B7,0.3 nM
8,B8,0.62 nM
9,B9,0.59 nM
10,B10,0.67 nM
11,B11,1.2 nM
12,B12,0.56 nM
13,B13,0.59 nM
14,B14,0.85 nM
15,B15,0.58 nM
16,B16,0.5 nM
17,B17,0.65 nM

# Target: T3, murine IL-11 (mouse, UniProt P47873 22-199)
# T3 sequence: T2 sequence
# Experiment: cell-based or functional assay
Binder,RGA Efficacy (%),RGA IC50
B18,96.9%,
B19,87.5%,260 pM
B20,94.8%,450 pM
B21,94.2%,570 pM

# Target: T4, human IL-11 (human, UniProt P20809 22-199)
# T4 sequence: T1 sequence
# Experiment: cell-based or functional assay
Binder,RGA Efficacy (%),RGA IC50
B18,84%,540 pM
B19,81.4%,640 pM
B20,75.3%,480 pM
B21,86%,1600 pM

# Target: T3, murine IL-11
# Experiment: SPR, antibody captured, IL-11 as analyte
row,Binder,Kd
1,B18,0.17 nM
2,B19,0.56 nM
3,B20,0.57 nM
4,B21,0.62 nM

# Target: T5, rat IL-11 (rat, UniProt Q99MF5 22-199)
# T5 construct: Invigate, e.g. lot #C301019-19; also called rIL11
# T5 sequence: T2 sequence with S50N, L84F, G94A, V137A, I138V
# Experiment: SPR, antibody captured, IL-11 as analyte
row,Binder,Kd
1,B18,0.071 nM
2,B19,0.2 nM
3,B20,0.3 nM
4,B21,0.31 nM

# Target: T4, human IL-11
# Experiment: SPR, antibody captured, IL-11 as analyte
row,Binder,Kd
1,B18,0.36 nM
2,B19,0.44 nM
3,B20,0.62 nM
4,B21,1.1 nM

# Target: T6, cynomolgus IL-11 (cynomolgus, UniProt P20808 22-199)
# T6 construct: Invigate, lot #C290621-19; also called cIL11; cynoL-11
# T6 sequence: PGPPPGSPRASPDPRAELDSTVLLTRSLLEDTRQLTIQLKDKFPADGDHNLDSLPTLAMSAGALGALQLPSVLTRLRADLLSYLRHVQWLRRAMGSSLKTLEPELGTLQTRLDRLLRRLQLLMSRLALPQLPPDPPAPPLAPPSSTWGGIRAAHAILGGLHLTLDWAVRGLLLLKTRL
# Experiment: SPR, antibody captured, IL-11 as analyte
row,Binder,Kd
1,B18,0.69 nM
2,B19,0.46 nM
3,B20,0.43 nM
4,B21,1.3 nM
